Patent US20140087995A1 (published 2014)
Numbered stars: 1 amine (or outer) side, 2 acyl side, 3 side chain; on linkers, the order of the positions; unused ones are H or OH. Bridge positions count the residues as written; N and C are the ends. Side chains are listed from the residue outwards. Ends that are not written are not given here. * marks the point of attachment. C20 diacid = O=C(O)CCCCCCCCCCCCCCCCCCC(=O)*; γGlu = O=C(O)[C@H](CCC(=O)[*:2])N[*:1]

B1: N^ε1-[(4S)-4-carboxy-4-(19-carboxynonadecanoylamino)butanoyl]-[Ala14,Arg17,Pro21,Pro27,Pro34]-h-amylin (peptide)
peptide: K([γGlu-C20 diacid])CNTATCATQRLAAFLRHSSPNFGAIPSSTNVGPNTY-NH2
modifications: disulfide 2-7; N-terminus assumed
SMILES: CC[C@H](C)[C@H](NC(=O)[C@H](C)NC(=O)CNC(=O)[C@H](Cc1ccccc1)NC(=O)[C@H](CC(N)=O)NC(=O)[C@@H]1CCCN1C(=O)[C@H](CO)NC(=O)[C@H](CO)NC(=O)[C@H](Cc1c[nH]cn1)NC(=O)[C@H](CCCNC(=N)N)NC(=O)[C@H](CC(C)C)NC(=O)[C@H](Cc1ccccc1)NC(=O)[C@H](C)NC(=O)[C@H](C)NC(=O)[C@H](CC(C)C)NC(=O)[C@H](CCCNC(=N)N)NC(=O)[C@H](CCC(N)=O)NC(=O)[C@@H](NC(=O)[C@H](C)NC(=O)[C@@H]1CSSC[C@H](NC(=O)[C@@H](N)CCCCNC(=O)CC[C@H](NC(=O)CCCCCCCCCCCCCCCCCCC(=O)O)C(=O)O)C(=O)N[C@@H](CC(N)=O)C(=O)N[C@@H]([C@@H](C)O)C(=O)N[C@@H](C)C(=O)N[C@@H]([C@@H](C)O)C(=O)N1)[C@@H](C)O)C(=O)N1CCC[C@H]1C(=O)N[C@@H](CO)C(=O)N[C@@H](CO)C(=O)N[C@H](C(=O)N[C@@H](CC(N)=O)C(=O)N[C@H](C(=O)NCC(=O)N1CCC[C@H]1C(=O)N[C@@H](CC(N)=O)C(=O)N[C@H](C(=O)N[C@@H](Cc1ccc(O)cc1)C(N)=O)[C@@H](C)O)C(C)C)[C@@H](C)O
notes: also called compound 94
B2: N^ε1-[(4S)-4-carboxy-4-(19-carboxynonadecanoylamino)butanoyl]-[Asp14,Arg17,Pro21,Pro27,Pro34,Glu35]-h-amylin (peptide)
peptide: K([γGlu-C20 diacid])CNTATCATQRLADFLRHSSPNFGAIPSSTNVGPETY-NH2
modifications: disulfide 2-7; N-terminus assumed
SMILES: CC[C@H](C)[C@H](NC(=O)[C@H](C)NC(=O)CNC(=O)[C@H](Cc1ccccc1)NC(=O)[C@H](CC(N)=O)NC(=O)[C@@H]1CCCN1C(=O)[C@H](CO)NC(=O)[C@H](CO)NC(=O)[C@H](Cc1c[nH]cn1)NC(=O)[C@H](CCCNC(=N)N)NC(=O)[C@H](CC(C)C)NC(=O)[C@H](Cc1ccccc1)NC(=O)[C@H](CC(=O)O)NC(=O)[C@H](C)NC(=O)[C@H](CC(C)C)NC(=O)[C@H](CCCNC(=N)N)NC(=O)[C@H](CCC(N)=O)NC(=O)[C@@H](NC(=O)[C@H](C)NC(=O)[C@@H]1CSSC[C@H](NC(=O)[C@@H](N)CCCCNC(=O)CC[C@H](NC(=O)CCCCCCCCCCCCCCCCCCC(=O)O)C(=O)O)C(=O)N[C@@H](CC(N)=O)C(=O)N[C@@H]([C@@H](C)O)C(=O)N[C@@H](C)C(=O)N[C@@H]([C@@H](C)O)C(=O)N1)[C@@H](C)O)C(=O)N1CCC[C@H]1C(=O)N[C@@H](CO)C(=O)N[C@@H](CO)C(=O)N[C@H](C(=O)N[C@@H](CC(N)=O)C(=O)N[C@H](C(=O)NCC(=O)N1CCC[C@H]1C(=O)N[C@@H](CCC(=O)O)C(=O)N[C@H](C(=O)N[C@@H](Cc1ccc(O)cc1)C(N)=O)[C@@H](C)O)C(C)C)[C@@H](C)O

Legend:
[1] = target: T1, human amylin 3(a) receptor (human calcitonin receptor + RAMP-3) (human, UniProt P30988 25-474; O60896 24-148, limits assumed); assay: cell-based or functional assay
T1 sequence (looked up) 1: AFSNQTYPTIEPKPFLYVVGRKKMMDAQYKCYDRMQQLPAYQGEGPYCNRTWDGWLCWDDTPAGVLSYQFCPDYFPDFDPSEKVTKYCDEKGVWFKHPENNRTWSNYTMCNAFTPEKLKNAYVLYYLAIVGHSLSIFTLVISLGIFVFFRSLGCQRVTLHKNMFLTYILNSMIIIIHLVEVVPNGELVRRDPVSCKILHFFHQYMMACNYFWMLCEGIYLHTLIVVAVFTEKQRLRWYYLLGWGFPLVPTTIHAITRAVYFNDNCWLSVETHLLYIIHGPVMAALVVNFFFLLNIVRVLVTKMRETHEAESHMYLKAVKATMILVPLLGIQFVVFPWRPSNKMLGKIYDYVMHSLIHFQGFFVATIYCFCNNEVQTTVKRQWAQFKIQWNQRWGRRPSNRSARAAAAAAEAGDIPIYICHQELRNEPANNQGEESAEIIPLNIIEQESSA
T1 sequence (looked up) 2: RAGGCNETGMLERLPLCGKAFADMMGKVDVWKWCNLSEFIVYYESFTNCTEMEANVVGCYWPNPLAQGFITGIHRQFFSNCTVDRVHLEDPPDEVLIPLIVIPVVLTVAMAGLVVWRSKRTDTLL

[2] = target: T2, human calcitonin receptor (human, UniProt P30988 25-474); assay: cell-based or functional assay
T2 sequence (looked up): T1 sequence (looked up) 1

Binder	hAmylin-R funct. EC50 (pM) [1]	Ratio hCT/hAmylin funct. [2]	hCTR funct. EC50 (pM) [2]
B1	70 pM	4.5	
B2	288 pM	3.9	1120 pM
